Reference: patent publication JP2020002075A (dated 2020)

Legend:
[1] = biological target: T1, ヒトポドプラニン (ヒトポドプラニン提示CHO細胞, CHO-hPDPN) (human, UniProt Q86YL7 23-162); test: flow cytometry on CHO-hPDPN, fit f(x)=a*x/(x+Kd)
T1 construct: whole, on cells
T1 sequence (looked up): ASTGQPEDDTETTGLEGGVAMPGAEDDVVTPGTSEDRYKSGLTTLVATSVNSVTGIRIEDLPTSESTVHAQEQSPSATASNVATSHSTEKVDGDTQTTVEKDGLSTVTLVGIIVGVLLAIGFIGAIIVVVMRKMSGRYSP

[2] = biological target: T2, ラットポドプラニン (ラットポドプラニン提示CHO細胞, CHO-rPDPN) (rat, UniProt Q64294 23-166); test: flow cytometry on CHO-rPDPN, fit f(x)=a*x/(x+Kd)
T2 construct: whole, on cells
T2 sequence (looked up): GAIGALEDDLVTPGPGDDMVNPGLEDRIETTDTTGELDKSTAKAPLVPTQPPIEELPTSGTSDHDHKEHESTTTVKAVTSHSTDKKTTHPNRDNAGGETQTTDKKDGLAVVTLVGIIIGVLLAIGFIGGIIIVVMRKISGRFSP

[3] = biological target: T3, ポドプラニン (ポドプラニン提示CHO細胞, 種の記載なし); test: flow cytometry; cells and species not named at this place
T3 construct: whole, on cells

B1: clone 1 (第一世代交差性一本鎖可変領域断片) (scFv)
scFv: EVQLKESGGGLVQSGGSLRLSCAASGFSLTDYGVNWVRQAPGKGLEWVGVIWGGGNTYYNSALKSRFTISKDNSKNTLYLQMNSLRAEDTAVYYCAKHRGAWGQGTLVTVSAAGGGGSGGGGSGGGGSDIVMTQSPSTLAVSLGEKATINCKSSKSLLNSGNQKNYLIWYQQKPGQPPKLLIYGASTRESGVPDRFSGSVSGTDFTLTISSLQAEDLAVYYCQNDHTYPLTFGQGTKVEIKRTV
notes: From the Hu2LPMab-16 scFv library; also called クローン1; 第一世代交差性抗体; not shown: C-terminal FLAG tag and His tag
Kd [1]: 6.3 nM | Kd [2]: 108 nM | Kd [3]: 108 nM

B2: clone 2 (scFv)
scFv: EVQLKESGGGLVQPGGSLRLSCAASGFSLTDYGVNWVRQAPGKGLEWVGVIWGGGNTYYNSALKSRFTISKDNSKNTLYLQMNSLRAEDTAVYYCAKHRGAWGQGTLVTVSAAGGGGSGGGGSGGGGSDIVMTQSPSNLAVSLGEKATINCKSSQSLLNSGNQKNYLNWYQQKPGQPPKLLIYRASTRESGVPDRFSGSVSGTDFTLTISSLQAEDLAVYYCQNDHTYPLIFGQGTKVEIKRTV
notes: From the Hu2LPMab-16 scFv library; also called クローン2; not shown: C-terminal FLAG tag and His tag
Kd [1]: 6.5 nM | Kd [2]: 500 nM
